# Source: paper PMC12175907 (Science Advances, 2025)
# Key:
# [1] = test system: DIO GIPR KO mice; assay: body composition (ECHO MRI), DIO GIPR KO mice; assay type: in vivo, mouse; conditions: 16 days daily sc, GIP-085 300 nmol/kg, semaglutide 3 nmol/kg, mean ± SEM, n=6 per group
# Protocol: C57BL/6 wild-type (n = 23), GLP-1R KO (n = 24), and GIPR KO mice (n = 24) received daily subcutaneous administration of GIP-085 (300 nmol/kg), semaglutide (3 nmol/kg), GIP-085/semaglutide combo, or vehicle for 16 days. Food intake and body weight were manually measured daily. The average body weight at the start of the experiment was 43.7 ± 0.4 g for the wild-type group, 39.0 ± 0.6 g for the GLP-1R KO group, and 36.5 ± 0.4 g for the GIPR KO group. Body composition of mice was determined using quantitative nuclear magnetic resonance analysis (ECHO MRI, 3-1 Composition Analyzer; Echo Medical Systems). At the end of the experiment, the animals were euthanized by CO2.
# [2] = test system: rats; assay: food and kaolin consumption and body weight in rats (semaglutide, tirzepatide); assay type: in vivo, Sprague-Dawley rat
# From the text: Adult male Sprague-Dawley rats (Charles River) weighing ~250 to 270 g (n = 45) at arrival were housed under a 12-hour/12-hour light/dark cycle in a temperature-controlled and humidity-controlled vivarium. Rats were individually housed in hanging wire-bottom cage with ad libitum access to chow diet (Purina Lab Diet 5001) or, when noted, to high-fat/high-sugar diet (60% fat diet, 12492, Research Diets) and tap water and had ad libitum access to kaolin pellets (Research Diets, K50001). Rats were exposed to kaolin for at least 5 days prior to measuring kaolin consumption in pica testing. Kaolin intake and food consumption were measured simultaneously as the presence of kaolin in the cage, and its subsequent ingestion, has usually negligible effects on the hypophagic and body weight–lowering effects of the treatments.
# GIPFA-085 (GIP-085), tirzepatide, and GLP-140 were designed and produced by Eli Lilly and Company. GIP-085, GLP-140, and semaglutide (Cayman Chemical) were dissolved in 40 mM tris-HCl buffer (pH 8) and 0.02% Tween 80. For the study in mice, all drugs were injected subcutaneously at a volume of 5 ml/kg of body weight. In rats, all drugs were injected intraperitoneally, at a volume of 1 ml/kg of body weight, except when noted. In shrews, all drugs were injected intraperitoneally at a volume of 10 ml/kg of body weight.
# In two separate cohorts of rats (n = 10 per group, body weight ~ 460 ± 9 g), food consumption, kaolin intake, and body weight were measured after an intraperitoneal administration of vehicle, semaglutide (10 and 100 nmol/kg), or tirzepatide (10 and 100 nmol/kg), respectively. Food and kaolin intake were measured at 3, 6, 24, and 48 hours postinjection, and body weight was measured at 0, 24, and 48 hours. For each drug, a within-subject paradigm was used, with each round of injections separated by 7 days.
# [3] = test system: shrews; assay: food intake and body weight, semaglutide dose-response, shrews; assay type: in vivo, Suncus murinus; conditions: 10, 50, 100 and 500 nmol/kg ip, n = 8 per group (legend)
# From the text: (§1) Adult male shrews (S. murinus) weighing ~50 to 80 g (n = 84 total) were bred and maintained in the De Jonghe Lab (University of Pennsylvania). These animals were offspring from a colony previously maintained at the University of Pittsburgh Cancer Institute (C. Horn); a Taiwanese strain was derived from stock originally supplied by the Chinese University of Hong Kong. Shrews were singly housed in plastic cages (37.3 cm by 23.4 cm by 14 cm, Innovive) under a 12-hour/12-hour light/dark cycle in a temperature-controlled and humidity-controlled environment. Animal were fed ad libitum with a mixture of feline (75%, Laboratory Feline Diet 5003, Lab Diet) and mink food (25%, High Density Ferret Diet 5LI4, Lab Diet) and had ad libitum access to tap water except where noted.
# We evaluated the effects on food intake and body weight of different doses of semaglutide. Food was removed 2 hours prior to dark onset. Shortly before dark onset, shrews (n = 9, ~59 ± 2 g) received intraperitoneal injection of semaglutide (10, 50, 100, and 500 nmol/kg) or vehicle. Shrews had ad libitum access to powdered food through a circular (3 cm in diameter) hole in the cage. Food intake was evaluated using our custom-made “feedometers,” consisting of a standard plexiglass rodent housing cage (29 cm by 19 cm by 12.7 cm) with mounted food hoppers resting on a plexiglass cup (to account for spillage). Food intake was manually measured at 6, 24, 48, and 72 hours postinjection. Body weight was taken at 0, 24, 48, and 72 hours. Treatments occurred in a within-subject, counterbalanced design and were 7 days apart.
# [4] = test system: shrews; assay: emesis, semaglutide dose-response, shrews; assay type: in vivo, Suncus murinus; conditions: for animals exhibiting emesis / emesis, dose dependence: 120 min; for animals exhibiting emesis: n = 9; for latency to first emetic episode: average of shrews that exhibited emesis, ± SEM; for emesis, dose dependence: 10, 50, 100 and 500 nmol/kg ip
# From the text: as §1
# To assess the emetogenic effects of semaglutide treatment, shrews (n = 9) were habituated to intraperitoneal injections and to clear plastic observation chambers (23.5 cm by 15.25 cm by 17.8 cm) for two consecutive days prior to experimentation. The animals were injected intraperitoneally with semaglutide (10, 50, 100, and 500 nmol/kg) or vehicle and then video recorded (Vixia HF-R62, Canon) for 120 min. After 120 min, the animals were returned to their cages. Treatment rounds were conducted within-subject and separated by 7 days. Analysis of emetic episodes was measured by a trained observer blinded to treatment groups. Emetic episodes were characterized by strong rhythmic abdominal contractions associated with either oral expulsion from the GI tract (i.e., vomiting) or without the passage of materials (i.e., retching). Latency to the first emetic episode, the total number of emetic episodes, and the number of emetic episodes per minute were quantified.
# [5] = test system: shrews; assay: emesis, semaglutide, GIP-085 and combo, shrews; assay type: in vivo, Suncus murinus; conditions: semaglutide 500 nmol/kg ip; 120 min; n = 10
# From the text: as §1
# We then evaluated the emetogenic actions of semaglutide (500 nmol/kg), GIP-085 (300 nmol/kg), GIP-085/semaglutide, or vehicle in a different cohort of shrews (n = 10). The animals were habituated to the experimental conditions as described above, injected intraperitoneally with semaglutide ([…]), GIP-085 (300 nmol/kg), GIP-085/semaglutide, or vehicle and then video-recorded (Vixia HF-R62, Canon) for 120 min. After 120 min, the animals were returned to their cages. Treatments were separated by 7 days. Emesis parameters were quantified as described above.
# [6] = 100 nmol/kg ip, n = 10 to 20 per group
# [7] = 10 and 100 nmol/kg ip, n = 10 per group, vs vehicle
substance,measurement,setting,value
semaglutide,total fat mass at the end of the experiment,[1]; Veh: 14.2±0.6g,8.1 ± 0.6 g
same,total lean mass at the end of the experiment,[1]; Veh: 22.3±0.5g,20.9 ± 0.3 g
same,kaolin intake,"[2]; 100 nmol/kg ip, n = 10 per group, vs vehicle","causes significant malaise (i.e., kaolin intake)"
same,"hypophagic responses, semaglutide vs tirzepatide",[2]; [6],comparable hypophagic responses
same,"kaolin consumption, semaglutide vs tirzepatide",[2]; [6],significantly higher than that caused by tirzepatide
same,"kaolin consumption, semaglutide vs tirzepatide","[2]; 100 nmol/kg ip, n = 10 to 20 per group, listed as Semaglutide",induces higher kaolin consumption than tirzepatide treatment
same,body weight,[2]; [7],causes body weight loss in a dose-dependent manner
same,food intake,[2]; [7],dose-dependently suppresses food intake
same,body weight loss,[3],significant body weight loss up to 72 hours after the highest dose tested
same,food intake (anorexia),[3],causes anorexia in a dose-dependent manner
same,body weight loss,[3]; listed as Semaglutide,dose-dependently induces body weight loss
same,animals exhibiting emesis,[4]; 100 nmol/kg ip,Twenty-two
same,latency to first emetic episode,[4]; 100 nmol/kg ip,63 ± 14 min
same,animals exhibiting emesis,[4]; 500 nmol/kg ip,67%
same,latency to first emetic episode,[4]; 500 nmol/kg ip,58 ± 6 min
same,"emesis, dose dependence",[4],dose-dependently induced emesis
same,"emesis, dose dependence",[4]; listed as Semaglutide,causes emesis in a dose-related manner
same,shrews that experienced emesis,[5],60%
